Measurements as given in US20130071366A1 (CANCER RESEARCH TECHNOLOGY, published 2013).
Residue numbers refer to the chain shown, from its start. Numbers in names are those of the source. Like-named read-outs stand apart in the source and are kept apart here.

B1: Fc-tagged enhanced mutant IGF2R domain 11 (11^E1544K-Fc) (Fc fusion)
chain: NEHDDCQVTNPSTGHLFDLSSLSGRAGFTAAYSKKGLVYMSICGENENCPPGVGACFGQTRISVGKANKRLRYVDQVLQLVYKDGSPCPSKSGLSYKSVISFVCRPEAGPTNRPMLISLDKQTCTLFFSWHTPLACEQAT
modifications: N-glycosylated with Man3GlcNAc2 (Drosophila cells)
notes: Homodimer, secreted from Drosophila D.Mel-2 cells; not shown: human IgG1 Fc domain, amplified from IMAGE clone 4851063 (ATCC-6878978)
B2: IGF2R domain 11, wild type, expressed in Pichia pastoris with C-terminal His6 tag (receptor)
chain: NEHDDCQVTNPSTGHLFDLSSLSGRAGFTAAYSEKGLVYMSICGENENCPPGVGACFGQTRISVGKANKRLRYVDQVLQLVYKDGSPCPSKSGLSYKSVISFVCRPEAGPTNRPMLISLDKQTCTLFFSWHTPLACEQATHHHHHH
notes: Alpha-factor signal is cleaved during secretion; soluble 17 kDa protein; also called WT; wild type domain 11
B3: IGF2R domain 11 E1544V (receptor)
chain: B2 chain with E34V
notes: Secreted from Pichia pastoris
B4: IGF2R domain 11 E1544A (receptor)
chain: B2 chain with E34A
notes: Secreted from Pichia pastoris
B5: IGF2R domain 11 I1572A (null mutant) (receptor)
chain: B2 chain with I62A
notes: Secreted from Pichia pastoris
B6: IGF2R domain 11 E1544K (enhanced mutant) (receptor)
chain: B2 chain with E34K
notes: Secreted from Pichia pastoris

Tests used:
[1] = target: T1, Insulin-like Growth Factor II (IGF-II), recombinant human (human, UniProt P01344 25-91, biotinyl group (site not stated) when immobilised for SPR; not biotinylated as SPR analyte or in ITC); test: SPR, biotinyl-IGF-II immobilised
T1 construct: mature; Bought as Biotinyl-IGF-II from GroPep for immobilisation on streptavidin chips; also called IGF2; Biotinyl-IGF-II
From the text: (§1) The affinity of versions of Fc-tagged domain 11 fusion proteins, and domain 11 constructs, for IGF-II were compared using surface plasmon resonance (BIAcore 3000). Attempts were made to immobilize Fc-tagged domain 11 proteins upon a sensor chip surface (CM5 and CM5-proteinA) but we encountered similar problems as described above with immobilised monomeric domain 11. Instead, immobilisation of biotinylated IGF-I and IGF-II on separate flow cells of a streptavidin coated sensor chip (BIAcore) generated reproducible sensorgram profiles when Fc-tagged and untagged domain 11 proteins were passed over the surface as analytes. The Fc-tagged domain 11 kinetic data performed in triplicate generated sensorgrams that were analyzed using a bivalent analyte model. […] Both Fc-tagged proteins appeared to have reduced off-rates compared to the untagged monomers.

[2] = target: T1, Insulin-like Growth Factor II (IGF-II), …; test: SPR, biotinyl-IGF-II immobilised, bivalent analyte model
From the text: as §1

[3] = target: T1, Insulin-like Growth Factor II (IGF-II), …; test: SPR, steady-state KD relative to wild type domain 11
Protocol: […]. Values are the mean±S.E.M. of three separate experiments.
(§2) Kinetic analysis by Surface Plasmon Resonance (SPR) was conducted on a BIAcore 3000 biosensor (BIAcore, Uppsala, Sweden) at 25° C. in HBS-EP (10 mM HEPES, pH 7.4, 150 mM NaCl, 3 mM EDTA, 0.005% surfactant P20) at a flow rate of 40 μl/min. […] Kinetic experiments consisted of a two minute injection of analyte followed by a 100s dissociation phase in running buffer, after which the binding surface was regenerated with a 2 minute injection of 2 M MgCl₂. A blank flow cell was used for in-line reference subtraction of changes due to differences in refractive index of running buffer versus sample and a buffer-only injection was used to subtract instrument noise and drift. Injections were performed in duplicate for each concentration and in a randomised order. Kinetic parameters were determined by global fitting of sensorgrams to a two-state (conformational change) binding model using BIAevaluation software version 4.0.1. In all cases the minor component made an insignificant contribution to the overall affinity and as such only the kinetic parameters of the major binding component were used. For each interaction the dissociation affinity constant (KD) was also calculated by fitting of the response of each concentration at equilibrium to a steady-state affinity model using BIAevaluation. In order to investigate the influence of ionic strength, kinetic experiments were conducted in HBS-EP running buffers containing the desired NaCl concentration. In each case, analyte samples were made up in the appropriate running buffer prior to injection.
Following purification, the binding of each mutant construct to IGF2 was assessed by SPR and compared to the wild type domain 11.

[4] = target: T1, Insulin-like Growth Factor II (IGF-II), …; test: as above; remark: listed apart in the source
Protocol: as §2, with “BIAevaluation.” for “BIAevaluation. In order to investigate the influence of ionic strength, kinetic experiments were conducted in HBS-EP running buffers containing the desired NaCl concentration. In each case, analyte samples were made up in the appropriate running buffer prior to injection.”

[5] = target: T1, Insulin-like Growth Factor II (IGF-II), …; test: as above; remark: listed apart in the source
[6] = target: T1, Insulin-like Growth Factor II (IGF-II), …; test: ITC
Protocol: Calorimetric measurements were performed using a VP-ITC microcalorimeter (MicroCal). All solutions were thoroughly degassed before use by stirring under vacuum. […] The sample cell contained either wild type domain 11 (7 uM) or the E1544A mutant (8 μM), also in HBS-E buffer. To correct for the heat effects of dilution and mixing, reaction heats obtained from a control experiment, in which IGF2 was injected into HBS-E, were subtracted. calorimetric data were analysed using MicroCal ORIGIN software (version 5.0) supplied with the instrument. Thermodynamic parameters were derived by fitting the binding isotherms to a single-site binding model. Values for dissociation affinity constants (KD) were determined from duplicate experiments.
In order to validate the SPR sensorgram data, ITC was used to assess the binding affinity between domain 11 and IGF-II. The affinity of the E1544A mutant was also assessed by ITC in order to confirm whether use of a second technique agreed as to the apparent increase in affinity (FIG. 6 and Table 6). Titrations were performed using […] injections of 40 μM IGF-II (after an initial 7.5 μl injection) into the reaction cell containing wild type domain 11 or the E1544A mutant. […] The two fold differences may be simply accounted for by the fidelity of both techniques.

[7] = target: T1, Insulin-like Growth Factor II (IGF-II), …; test: SPR, biotinylated IGF-II on a streptavidin chip, domain 11 protein injected as analyte at 16384 to 32 nM
Protocol: The polymorphism G1619R (l) has an apparent wild type interaction and the E1544A (d) mutation has a modest positive affect on IGF-II binding.
as §2, with “In all cases the minor component made an insignificant contribution to the overall affinity and as such only the kinetic parameters of the major binding component were used.” left out, “In order to investigate the influence of ionic strength, kinetic experiments were conducted in HBS-EP running buffers containing the desired NaCl concentration. In each case, analyte samples were made up in the appropriate running buffer prior to injection.” left out
Following purification, the binding of each mutant construct to IGF2 was assessed by SPR and compared to the wild type domain 11. […]

T1 sequence (P01344 25-91): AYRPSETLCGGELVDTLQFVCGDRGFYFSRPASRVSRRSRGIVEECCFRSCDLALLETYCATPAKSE

Binder | Relative Affinity [3] | Relative Affinity [4] | Relative Affinity [5] | further results
B1 | – | – | – | RU response relative to 11-Fc at equal concentrations [1]: ~2 fold vs 11-Fc; molar affinity relative to 11-Fc [2]: ~2 fold vs 11-Fc
B2 | 1 fold vs wild type domain 11 | 1 fold vs wild type domain 11 | 1 fold vs wild type domain 11 | –
B3 | – | 1.96 fold vs wild type domain 11 | 1.96 fold vs wild type domain 11 | –
B4 | 2.79 fold vs wild type domain 11 | 2.79 fold vs wild type domain 11 | 2.79 fold vs wild type domain 11 | relative affinity increase over wild type by ITC [6]: ~2 fold vs wild type domain 11
B5 | – | – | – | binding result [7]: no binding (tested: 16384 nM)
B6 | – | 6.12 fold vs wild type domain 11 | 6.12 fold vs wild type domain 11 | –
